Consider 1 molecule from patent US20230036655A1 (OTSUKA PHARMACEUTICAL, published 2023).

Residue numbers refer to the chain shown, from its start.

Experiment [1] concerns the target T1, mutant hGDF15 8A (human, UniProt Q99988 197-308).
T1 construct: Expressed in ExpiCHO-S cells and used as culture supernatant
T1 chain: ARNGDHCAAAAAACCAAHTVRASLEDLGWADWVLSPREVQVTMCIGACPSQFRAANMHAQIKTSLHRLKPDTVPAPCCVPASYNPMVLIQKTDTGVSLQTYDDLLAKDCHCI
As to the kind of experiment: sandwich ELISA, HuMAB2 immobilised, mutant hGDF15, goat polyclonal detection (relative value -0.1). Background: In an ELISA, binding on a coated surface is turned into a signal by an enzyme label.

The target in experiment [2] is T2, mutant hGDF15 4A (human, UniProt Q99988 197-308).
T2 construct: Expressed in ExpiCHO-S cells and used as culture supernatant
T2 chain: T1 chain with A8P, A9L, A10G, A11P
As to the kind of experiment: sandwich ELISA, HuMAB2 immobilised, mutant hGDF15, goat polyclonal detection (relative value 0.0).

The target of experiment [3] is T3, mutant hGDF15 6A (human, UniProt Q99988 197-308).
T3 construct: Expressed in ExpiCHO-S cells and used as culture supernatant
T3 chain: T1 chain with A8P, A9L
The experiment is described as above.

Experiment [4] has as its target T4, human GDF15 (hGDF15), mature, wild-type (human, UniProt Q99988 197-308).
T4 construct: Bought recombinant protein: R&D Systems 957-GD-025/CF in most assays, 9279-GD in the crystal and the GDF15/GFRAL/RET assay; It was biotinylated in the GFRAL assay; also called hGDF15 (WT); rhGDF15
T4 sequence: T1 chain with A8P, A9L, A10G, A11P, A12G, A13R, A16R, A17L
The experiment is described as follows: competition ELISA: GFRAL immobilised, biotinylated GDF15 plus serially diluted antibody; inhibition of GDF15-GFRAL complex formation. The text has this:
First, the effect on GDF15 and GFRAL complex formation was examined (FIG. 12). GFRAL (R&D systems, 9697-GR) was immobilized on a plate, and GDF15 (R&D systems, 957-GD/CF) biotinylated with EZ-Link Micro NHS-PEG4-Bitinylation Kit (Thermo Fisher Scientific, 21955) and a serially diluted solution of an anti-GDF15 monoclonal antibody (Table 26) were reacted with the plate. Human IgG1, kappa-Isotype Control (Abcam) was used as a negative control antibody. GDF15 bound to GFRAL was detected using Pierce High Sensitivity Streptavidin-HRP (Thermo Fisher Scientific, 21130). TMB 1-Component Microwell Peroxidase Substrate, SureBlue (SeraCare Life Sciences) was used for color development, and the reaction was stopped by adding a stop solution (Wako). Absorbance was measured at 450 nm (OD450) using Emax (Molecular Devices). The % of control value was calculated according to Equation-1 from the OD450 value when each antibody was added, with the OD450 value when no antibody was added as a control. The IC50 value was obtained by calculating the inhibition rate from the % of control value thus obtained according to Equation-2 and using an Excel macro for IC50 calculation.

Experiment [5] concerns the target T5, mutant hGDF15 3A (human, UniProt Q99988 197-308).
T5 construct: Expressed in ExpiCHO-S cells and used as culture supernatant
T5 chain: T1 chain with A8P, A9L, A10G, A11P, A17L
The experiment is described as follows: sandwich ELISA, HuMAB2 immobilised, mutant hGDF15, goat polyclonal detection (relative value 0.4).

The target of a further experiment is T6, Peptide 1 (human, cysteine pairing not given here).
T6 construct: Synthesized by GenScript
T6 peptide: H-DHCPLGPGRCCRLH-OH
As to the kind of experiment: ELISA, peptide immobilised, anti-human IgG-HRP detection. How it is done:
(§1) Peptide 1 was unmodified at both ends, and Peptide 2 was synthesized by acetylating the amino terminus and amidating the carboxyl terminus for the purpose of mimicking the natural state because this region is an internal region within hGDF15. HuMAB2 antibody (10 μg/mL) was added at 100 μL/well to a 96-well plate on which a 10 μg/mL peptide solution had been added at 100 μL/well and the peptide had been immobilized, and thereby reacted with the peptide (25° C. for 3 hours). The bound HuMAB2 antibody was detected by adding a 5000-fold diluted anti-human IgG-HRP (Jackson ImmunoResearch, 109-035-008) at 100 μL/well and reacted at 25° C. for 1 hour. A plate on which hGDF15 (R&D Systems, 957-GD-025/CF) was immobilized was used as a control plate. The detection antibody in Human GDF15 ELISA Kit (R&D Systems, DY957) (Table 9) was used as a positive control antibody that reacts with the peptide, and Human IgG1 Isotype control (Abcam, ab206198) was used as a negative control antibody.

The target of the next experiment is T7, Peptide 2 (human, cysteine pairing not given here).
T7 construct: Synthesized by GenScript
T7 peptide: Ac-DHCPLGPGRCCRLH-NH2
The experiment is described as above. As for the experimental part: as §1

Experiment [6] addresses T1, mutant hGDF15 8A. The experiment is described as follows: sandwich ELISA: antibody immobilised, WT or mutant hGDF15, goat polyclonal detection; N=3, mean ± SD.
Experiment [7] concerns the target T5, mutant hGDF15 3A. The description is as above.
Another experiment deals with T8, mutant hGDF15 H6A (human, UniProt Q99988 197-308).
T8 construct: Expressed in ExpiCHO-S cells and used as culture supernatant in the ELISA
T8 chain: T1 chain with H6A, A8P, A9L, A10G, A11P, A12G, A13R, A16R, A17L
The description is as above.

For a further experiment, the target named is T9, mutant hGDF15 R13A, R16A (human, UniProt Q99988 197-308).
T9 construct: Expressed in ExpiCHO-S cells and used as culture supernatant in the ELISA
T9 chain: T1 chain with A8P, A9L, A10G, A11P, A12G, A17L
Described as above.

For a further experiment, the target named is T10, mutant hGDF15 R16A (human, UniProt Q99988 197-308).
T10 construct: Expressed in ExpiCHO-S cells and used as culture supernatant in the ELISA
T10 chain: T1 chain with A8P, A9L, A10G, A11P, A12G, A13R, A17L
The experiment is described as above.

Experiment [8] deals with T2, mutant hGDF15 4A. The experiment is described as above.
The target of experiment [9] is T3, mutant hGDF15 6A. The description is as above.
A further experiment addresses T11, mutant hGDF15 T72A (human, UniProt Q99988 197-308).
T11 construct: Expressed in ExpiCHO-S cells and used as culture supernatant in the ELISA
T11 chain: T1 chain with A8P, A9L, A10G, A11P, A12G, A13R, A16R, A17L, T72A
Described as above.

The target in another experiment is T12, mutant hGDF15 R13A (human, UniProt Q99988 197-308).
T12 construct: Expressed in ExpiCHO-S cells and used as culture supernatant in the ELISA
T12 chain: T1 chain with A8P, A9L, A10G, A11P, A12G, A16R, A17L
The experiment is described as above.

B1: HuMAB2 (antibody, human IgG1, kappa, V domains shown)
VH: QVQLQESGPGLVKPSETLSLTCTVSGFSINSDCYWIWIRQPPGKGLEYIGYTFYSGITYYNPSLASRTTISRDTSKNQFSLKLSSVTAADTAVYYCARDCDYAMDYWGQGTLVTVSS
VL: DIQMTQSPSSLSASVGDRVTITCRASQDISNYLNWYQQKPGKAVKLLIHYTSTLHSGVPSRFSGSGSGTDYTLTISSLQPEDFATYFCQQGNTLPWTFGQGTKLEIKR
notes: Humanized MAB2 joined to the constant region of bevacizumab; The printed copies of the L chain differ from each other; also called HuMAB2 antibody; H3delK/L7
A word on the IC50: it is the point on the concentration scale where inhibition reaches its midpoint. With B1, the binding result with mutant hGDF15 8A [1] is listed as “no binding”; in the experiment with mutant hGDF15 4A [2], “no binding”; in the experiment with mutant hGDF15 6A [3], “no binding”; with mutant hGDF15 3A [5], “no binding”; with Peptide 1 it was “no binding (tested: 10 µg/mL)”; in the experiment with Peptide 2 it was “no binding (tested: 10 µg/mL)”. For the same molecule, the IC50 in [4] is greater than 500 nM. Moreover, the “relative binding (amount bound to 500 pg/mL hGDF15 = 100)” value was -0.1 relative value (WT hGDF15 = 100) with mutant hGDF15 8A [6]; 0.4 relative value (WT hGDF15 = 100) with mutant hGDF15 3A [7]; 136 relative value (WT hGDF15 = 100) in the experiment with mutant hGDF15 H6A; 24 relative value (WT hGDF15 = 100) with mutant hGDF15 R16A; 0 relative value (WT hGDF15 = 100) with mutant hGDF15 4A [8]; 0 relative value (WT hGDF15 = 100) in the experiment with mutant hGDF15 6A [9]. For the same molecule, the entries for the “relative binding (amount bound to 500 pg/mL hGDF15 = 100)” value with mutant hGDF15 T72A and in the experiment with mutant hGDF15 R13A were 101 relative value (WT hGDF15 = 100) and 17.8 relative value (WT hGDF15 = 100), respectively. The molecule further registered a relative binding (amount bound to 500 pg/mL hGDF15 = 100) (relative value (WT hGDF15 = 100)) in the experiment with mutant hGDF15 R13A, R16A of 4.9.
